The target in assay [1] is T1, soluble DR5-Fc fusion protein (UniProt O14763 56-182, limits assumed, biotin-labeled (sites not given)).
T1 construct: It was biotinylated and captured on streptavidin biosensors; also called DR5 (TRAIL-R2); biotinylated DR5-Fc; not shown: Fc part
In words: biolayer interferometry (ForteBio Octet RED 96), biotinylated DR5-Fc captured on streptavidin biosensor tips, TRAIL-Trimer in solution at graded concentrations. The source says: (§1) Figure 7: FIG. 7 is the kinetic studies of TRAIL-Trimer, TRAIL-Fc and native TRAIL binding to the soluble DR5-Fc fusion protein assessed by biolayer interferometry measurements. The Super Streptavidin biosensor tips of the ForteBio Octet RED 96 were coated with biotinylated DR5-Fc. The biosensor tips were dipped in increasing concentrations gradient of TRAIL-Trimer, TRAIL-Fc and native TRAIL to measure their binding to DR5-Fc and subsequently moved to wells containing buffer (PBS) to measure dissociation rates. The dissociation constant Kd was shown for each graph. Figure 7: Figure 7:
(§2) Comparison of TRAIL-Trimer, TRAIL-Fc and Native TRAIL in Receptor Binding Avidity In Vitro DR5 (TRAIL-R2) is one of TRAIL's functional receptors which initiates extrinsic apoptosis pathway signaling upon activation; thus, we examined the binding kinetic profile of TRAIL-Trimer, TRAIL-Fc and native TRAIL to a soluble DR5-Fc fusion protein. With Fortebio biolayer interferometry measurement, the biotin-labeled DR5-Fc was first captured on Streptavidin (SA) sensors, and real-time binding curves were measured and plotted by applying the sensor in gradient concentrations (15.4 nM-123.5 nM) of the three analytes (FIG. 7).
On the technique in general: In BLI a coated tip is dipped into the sample, and binding shifts an interference pattern.

Assay [2] deals with T1, soluble DR5-Fc fusion protein. As to the kind of experiment: BLI (ForteBio Octet), biotin-labeled DR5-Fc on streptavidin sensors.
Description: as §1, §2

T1 sequence (O14763 56-182 limits assumed): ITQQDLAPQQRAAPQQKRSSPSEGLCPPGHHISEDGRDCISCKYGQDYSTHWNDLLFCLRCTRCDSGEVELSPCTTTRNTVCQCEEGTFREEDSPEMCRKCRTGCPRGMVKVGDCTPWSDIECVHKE

B1: TRAIL-Trimer (mature human TRAIL fused to the C-propeptide of human alpha1(I) collagen, Trimer-Tag, with a mutated BMP-1 site) (ligand)
chain: VRERGPQRVAAHITGTRGRSNTLSSPNSKNEKALGRKINSWESSRSGHSFLSNLHLRNGELVIHEKGFYYIYSQTYFRFQEEIKENTKNDKQMVQYIYKYTSYPDPILLMKSARNSCWSKDAEYGLYSIYQGGIFELKENDRIFVSVTNEHLIDMDHEASFFGAFLVGGSNGLPGPIGPPGPRGRTGDAGPVGPPGPPGPPGPPGPPSAGFDFSFLPQPPQEKAHDGGRYYRANDANVVRDRDLEVDTTLKSLSQQIENIRSPEGSRKNPARTCRDLKMCHSDWKSGEYWIDPNQGCNLDAIKVFCNMETGETCVYPTQPSVAQKNWYISKNPKDKRHVWFGESMTDGFQFEYGGQGSDPADVAIQLTFLRLMSTEASQNITYHCKNSVAYMDQQTGNLKKALLLKGSNEIEIRAEGNSRFTYSVTVDGCTSHTGAWGKTVIEYKTTKSSRLPIIDVAPLDVGAPDQEFGFDVGPVCFL
notes: also called SCB-313; disulfide bond-linked trimeric TRAIL fusion protein
A word on the Kd: it is the concentration at which binding is half-saturated. A higher Kd goes with weaker binding. By koff is commonly meant a measure of how fast the partners let go of each other. The low end stands for slow dissociation, the high end for fast dissociation. In general, kon refers to the second-order rate constant of association. A high value points to fast association. In assay [1], B1 gave a Kd of under 1 pM. Also, in assay [2], the off-rate constant (koff) is under 1e-07 s⁻¹ and the kon amounted to 81000 M⁻¹ s⁻¹.
